# From the supplement of paper PMC9233669
# Fewer inactive variants are shown than the library holds.
# Legend:
# [1] = tested on: biotinyl-Met-oxazolone; test: self-aminoacylation, catalytic enhancement (BMO) (fold over background); higher = more active; k-Seq, kA / k0A0; sequences stand for … in GGGAAUGGAUCCACAUCUACGAAUUC…UUCACUGCAGACUUGACGAAGCUG
# How it was run: (§1)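 Mutagenized RNA pools with a 21-nt variable region (0.43 μM) reacted with each biotinyl-aminoacyl-oxazolone at 2–1250 μM. Reactions ran in 50 μL HEPES/NaCl/KCl/MgCl2/CaCl2 buffer with 5% acetonitrile, pH 6.9–7.0, for 90 minutes at room temperature. Streptavidin-captured RNA was quantified by triplicate qPCR and Illumina sequencing, and per-sequence fraction reacted was fit to a pseudo-first-order model with 1000 bootstraps. Catalytic enhancement is median kA divided by the uncatalyzed rate, the low-activity peak of a bimodal Gaussian fit.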
# [2] = tested on: biotinyl-Trp-oxazolone; test: self-aminoacylation, catalytic enhancement (BWO) (fold over background); higher = more active; k-Seq, kA / k0A0; sequences stand for … in GGGAAUGGAUCCACAUCUACGAAUUC…UUCACUGCAGACUUGACGAAGCUG
# How it was run: as §1
# [3] = tested on: biotinyl-Val-oxazolone; test: self-aminoacylation, catalytic enhancement (BVO) (fold over background); higher = more active; k-Seq, kA / k0A0; sequences stand for … in GGGAAUGGAUCCACAUCUACGAAUUC…UUCACUGCAGACUUGACGAAGCUG
# How it was run: as §1
# [4] = tested on: biotinyl-Phe-oxazolone; test: self-aminoacylation, catalytic enhancement (BFO) (fold over background); higher = more active; k-Seq, kA / k0A0; sequences stand for … in GGGAAUGGAUCCACAUCUACGAAUUC…UUCACUGCAGACUUGACGAAGCUG
# How it was run: as §1
# [5] = tested on: biotinyl-Leu-oxazolone; test: self-aminoacylation, catalytic enhancement (BLO) (fold over background); higher = more active; k-Seq, kA / k0A0; sequences stand for … in GGGAAUGGAUCCACAUCUACGAAUUC…UUCACUGCAGACUUGACGAAGCUG
# How it was run: as §1
# [6] = tested on: biotinyl-Ile-oxazolone; test: self-aminoacylation, catalytic enhancement (BIO) (fold over background); higher = more active; k-Seq, kA / k0A0; sequences stand for … in GGGAAUGGAUCCACAUCUACGAAUUC…UUCACUGCAGACUUGACGAAGCUG
# How it was run: as §1
Sequence,self-aminoacylation [1],self-aminoacylation [2],self-aminoacylation [3],self-aminoacylation [4],self-aminoacylation [5],self-aminoacylation [6]
AUUACCCUGGUCGUCGAGUGC [Fam2.1 aminoacylation ribozyme variant],0.9,0.43,0.907,1.76,0.808,0.739
AUUACCCUGGUCGUCGCGUGA [Fam2.1 aminoacylation ribozyme variant],6.7,8.26,4.34,48.7,8.84,3.98
AUUACCCUGGUCGUCUAGUGA [Fam2.1 aminoacylation ribozyme variant],1.37,0.905,1.04,2.09,1.53,1.15
AUUACCCUGGUCUUAGAGUGA [Fam2.1 aminoacylation ribozyme variant],7.82,9.81,4.31,39.5,7.33,4.28
AUUACCCUGGUCUUCGAGUGA [Fam2.1 aminoacylation ribozyme variant],5.36,6.84,3.3,26.4,5.52,3.09
AUUACCCUGGUCUUCGAUUGA [Fam2.1 aminoacylation ribozyme variant],0.723,0.41,0.779,0.383,0.67,0.769
AUUACCCUGGUCUUCGGGUGA [Fam2.1 aminoacylation ribozyme variant],8.38,9.66,5.66,48.9,9.51,4.68
AUUACCCUGGUCUUCUAGUGA [Fam2.1 aminoacylation ribozyme variant],5.28,7.45,3.54,23.6,5.65,2.92
AUUACCCUGGUGAUAGAGUGA [Fam2.1 aminoacylation ribozyme variant],9.04,8.54,3.62,53.4,8.59,3.75
AUUACCCUGGUGAUCCAGUGA [Fam2.1 aminoacylation ribozyme variant],9.84,12.4,4.65,60.7,9.64,4.33
AUUACCCUGGUGAUCGAGAGA [Fam2.1 aminoacylation ribozyme variant],1.24,0.417,0.92,0.65,0.908,1.33
AUUACCCUGGUGAUCGAGUGU [Fam2.1 aminoacylation ribozyme variant],2.12,2.96,1.57,5.19,2.31,1.51
AUUACCCUGGUGAUCGAUUGA [Fam2.1 aminoacylation ribozyme variant],1.39,0.834,0.859,0.845,1.09,1.03
